Source: patent US10117916B2, “Peptides and combination of peptides for use in immunotherapy against CLL and other cancers” (immatics biotechnologies GmbH, priority 2015, dated 2018)

Target: HLA-A*02:01 (Homo sapiens, UniProt P04439, D140Y/D185E/D98H/E176V/E277Q/G131W/G231S/I119V/I121R/I166T/I218V/L300P/L318F/N151K/N90K/P208A/P217A/Q86G/Q94H/R138H/R169H/T345S)
Assay: MHC binding assay: UV-ligand exchange with β2m ELISA (peptide exchange yield)
Conditions: MHC class I binding score; binding to HLA-A*02:01 ranged by peptide exchange yield (UV-ligand exchange, β2m ELISA)
Description: Candidate peptides for T cell based therapies according to the present invention were further tested for their MHC binding capacity (affinity). The individual peptide-MHC complexes were produced by UV-ligand exchange, where a UV-sensitive peptide is cleaved upon UV-irradiation, and exchanged with the peptide of interest as analyzed. Only peptide candidates that can effectively bind and stabilize the peptide-receptive MHC molecules prevent dissociation of the MHC complexes. To determine the yield of the exchange reaction, an ELISA was performed based on the detection of the light chain (β2m) of stabilized MHC complexes. The assay was performed as generally described in Rodenko et al. (Rodenko et al., 2006).
96 well MAXISorp plates (NUNC) were coated over night with 2 ug/ml streptavidin in PBS at room temperature, washed 4× and blocked for 1 h at 37° C. in 2% BSA containing blocking buffer. Refolded HLA-A*02:01/MLA-001 monomers served as standards, covering the range of 15-500 ng/ml. Peptide-MHC monomers of the UV-exchange reaction were diluted 100 fold in blocking buffer. Samples were incubated for 1 h at 37° C., washed four times, incubated with 2 ug/ml HRP conjugated anti-β2m for 1 h at 37° C., washed again and detected with TMB solution that is stopped with […]. Absorption was measured at 450 nm. Candidate peptides that show a high exchange yield (preferably higher than 50%, most preferred higher than 75%) are generally preferred for a generation and production of antibodies or fragments thereof, and/or T cell receptors or fragments thereof, as they show sufficient avidity to the MHC molecules and prevent dissociation of the MHC complexes.

| Peptide Exchange | Substance |
| --- | --- |
| ″+++″ (≥50 = +++) | 90 (VIADLGLIRV; listed as Homo sapiens) [compound 90] |
| ″+++″ (≥50 = +++) | 205 (GLSQANFTL; listed as Homo sapiens) [compound 205] |
| ″+++″ (≥50 = +++) | 210 (KLLVQDFFL; listed as Homo sapiens) [compound 210] |
| ″+++″ (≥50 = +++) | 53 (FLWQHVELVL; listed as Homo sapiens) [compound 53] |
| ″+++″ (≥50 = +++) | 364 (KMDWIFHTI; listed as Homo sapiens) [compound 364] |
| ″+++″ (≥50 = +++) | 133 (YLLSGDISEA; listed as Homo sapiens) [compound 133] |
| ″+++″ (≥50 = +++) | 13 (VVDGMPPGV; listed as Homo sapiens) [compound 13] |
| ″+++″ (≥50 = +++) | 139 (NLTDVVEKL; listed as Homo sapiens) [compound 139] |
| ″++″ (≥20% = ++) | 218 (ALGEEWKGYVV; listed as Homo sapiens) [compound 218] |
| ″+++″ (≥50 = +++) | 161 (SMDDGMINV; listed as Homo sapiens) [compound 161] |
| ″+++″ (≥50 = +++) | 319 (QVIPQLQTV; listed as Homo sapiens) [compound 319] |
| ″+++″ (≥50 = +++) | 385 (YTIPLAIKL; listed as Homo sapiens) [compound 385] |
| ″+++″ (≥50 = +++) | 152 (SLIRILQTI; listed as Homo sapiens) [compound 152] |
| ″+++″ (≥50 = +++) | 260 (SLDDVEGMSV; listed as Homo sapiens) [compound 260] |
| ″++″ (≥20% = ++) | 173 (TVIENIHTI; listed as Homo sapiens) [compound 173] |
| ″+++″ (≥50 = +++) | 303 (ILSQPTPSL; listed as Homo sapiens) [compound 303] |
| ″+++″ (≥50 = +++) | 45 (FLPELPADLEA; listed as Homo sapiens) [compound 45] |

| Peptide Exchange | Substance |
| --- | --- |
| ″++″ (≥20% = ++) | 65 (GLDDMKANL; listed as Homo sapiens) [compound 65] |
| ″+++″ (≥50 = +++) | 38 (FIMEGGAMV; listed as Homo sapiens) [compound 38] |
| ″+++″ (≥50 = +++) | 315 (LVYEAPETV; listed as Homo sapiens) [compound 315] |
| ″++++″ (≥75% = ++++) | 16 (ALPGGAAVAAV; listed as Homo sapiens) [compound 16] |
| ″++″ (≥20% = ++) | 337 (YMYEKESEL; listed as Homo sapiens) [compound 337] |
| ″+″ (≥10% = +) | 135 (MTAGFSTIAGSV; listed as Homo sapiens) [compound 135] |
| ″+++″ (≥50 = +++) | 160 (SLSFLVPSL; listed as Homo sapiens) [compound 160] |
| ″+++″ (≥50 = +++) | 55 (FMEPTLLML; listed as Homo sapiens) [compound 55] |
| ″+++″ (≥50 = +++) | 370 (SIFASPESV; listed as Homo sapiens) [compound 370] |
| ″++++″ (≥75% = ++++) | 43 (FLLGPEALSFA; listed as Homo sapiens) [compound 43] |
| ″+++″ (≥50 = +++) | 274 (VLLEYHIAYL; listed as Homo sapiens) [compound 274] |
| ″++″ (≥20% = ++) | 141 (QILSEIVEA; listed as Homo sapiens) [compound 141] |
| ″+++″ (≥50 = +++) | 286 (FLLEDLSQKL; listed as Homo sapiens) [compound 286] |
| ″+++″ (≥50 = +++) | 251 (LLYDNVPGA; listed as Homo sapiens) [compound 251] |
| ″+++″ (≥50 = +++) | 120 (AIDAALTSV; listed as Homo sapiens) [compound 120] |
| ″+++″ (≥50 = +++) | 369 (RLLDLENSLLGL; listed as Homo sapiens) [compound 369] |
